± gives the half width of the 95% confidence interval.
How the values were obtained:
[1] = folding stability dG unfold from chymotrypsin proteolysis; higher = more stable
Method in brief: (§1)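 Unfolding free energy was derived, per protease or combined, by relating Bayesian-fitted K50 values from sequencing counts to a sequence-predicted unfolded-state K50 and a shared folded-state K50. The underlying digests exposed cysteine-free mini-proteins under 80 residues, in a PA-tagged cDNA display construct, to trypsin and chymotrypsin at 11 threefold-diluted concentrations and to a no-protease condition. A filter kept only designs with AlphaFold2 dimer inter-PAE above 15.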

[2] = folding stability dG unfold from trypsin proteolysis; higher = more stable
Method in brief: as §1

[3] = folding stability dG unfold (combined trypsin and chymotrypsin); higher = more stable
Method in brief: as §1

Row | Sequence | folding stability dG unfold [1] [kcal/mol] | folding stability dG unfold [2] [kcal/mol] | folding stability dG unfold [3] [kcal/mol]
1 | SEVVDTFSPPVTGSGEPRDFEIRLIKDENGNPVSVTMFDPVTGVEYPPDVSLEDLGVPPPVVEAFEAARRSS [r1_354_JUSTAS] | 0.0636 ± 0.062 | -0.48 ± 0.08 | -0.0908 ± 0.069
2 | SKKKTLKIVDKETNVVIEMTAEELAEKLGLSVEDLEIEVVDLKTKEVKTIKIKLPKPKPEEKKKVKEEEKSA [r9_819_TrROS_Hall] | 1.18 ± 0.046 | -0.336 ± 0.23 | 0.75 ± 0.15
3 | SAGGPTIRLLVLPNKAEEVAEAIKKEFGAEVKILRVEPYPLPGPDGKVLKPVYLVEIEVKVKDPRLPLSAGG [r13_943_TrMRF] | 1.3 ± 0.14 | 1.17 ± 0.051 | 1.29 ± 0.17
4 | SAGGSAMPLLKPPKTIRLRILFKVPEPGKELDITEEAVRELFNPFGAKVRIYRDGDYVLIEVEFVVSAGGSA [r15_377_TrMRF] | 3.37 ± 0.089 | 4.03 ± 0.097 | 3.85 ± 0.15
5 | SAGLNIPPEMTVDELVEFLKSLGVKSYKVEKTEDPESYVVTFEFPDFTVVMTFHPDSVTITVVPKDEPLSAG [r5_899_TrMRF] | 3.52 ± 0.061 | 3.14 ± 0.11 | 3.34 ± 0.14
6 | SAGGSAGGSAGGKSKTLRLYNKDTGVAVTVTLNEDGSLSVTVEPLPPPPPVEEKVVVKGSAGGSAGGSAGGS [r10_664_TrROS_Hall] | 1.37 ± 0.13 | 0.527 ± 0.071 | 1.03 ± 0.11
7 | SMETLEIEITVKVEKDENGKIRKVSVEELKEELEKAGFKITEIEITEVTENTVKIKIKIEKPEEEEEEEESA [r9_225_TrROS_Hall] | 3.26 ± 0.24 | 2.97 ± 0.36 | 3.25 ± 0.55
8 | SALDVPPDARVYVFRLRYPVPPGVSAADVAARVRAELSERFGPDVEIVVTVTPDPETGEVLVEAVVVEPVSA [r9_657_TrMRF] | 4.05 ± 0.058 | 3.57 ± 0.12 | 3.82 ± 0.16
9 | SAGGSAGGLPPGQSIEIFIFSMFPTPNGNLNLEMIQITIRIRPVVRKPDNGGEKYVPPDDPDLASAGGSAGG [r6_405_TrROS] | 4.36 ± 0.22 | 2.87 ± 0.11 | 3.97 ± 0.16
10 | SAGGSAGGSAGGSMLVEKKTFKDPKTGKTYIEIVIKDENGNLLSVKILSTEDPEKIEKLLSAGGSAGGSAGG [r7_484_JUSTAS] | 2.55 ± 0.037 | 2.15 ± 0.12 | 2.37 ± 0.15
11 | SEVVFTLKDKPSPEELLKALAAVPGFSLETILKNTKVSPGKTGPKLTIKKEDFEKLEKENPEALEIIRSGSA [r9_160_TrMRF] | 1.01 ± 0.11 | 1.2 ± 0.026 | 1.09 ± 0.089
12 | SAGGSAGGSGVLVRITATHPDGSTEEVLEIEVPNDENDPAKLKAIAEELAKKAGMKNIKIELLSAGGSAGGS [r12_569_JUSTAS] | 2.49 ± 0.027 | 1.95 ± 0.047 | 2.31 ± 0.07
13 | SMDPGDPILITIKIPPVPVYRYKRDPDGNPKGYEPVPMPSQELVIIIPANDLEKLLDLLQPFGLDVEIIPSA [r9_167_TrROS] | 2.44 ± 0.083 | 1.58 ± 0.071 | 2.08 ± 0.13
14 | SKYRILIHTPNPGMPPEEIIDELEEPGFKDVEVVDSPSELKELPPNYDIVIMFHNGQFQISIFPPEELDKSA [r9_750_TrROS] | 1.4 ± 0.31 | 0.316 ± 0.14 | 0.937 ± 0.2
15 | SAGGSAGGSAGGSMLVRFPDKDVLSDGSEAEAERLAEELAAAGRPVELEFISPEEAAARSAGGSAGGSAGGS [r4_131_JUSTAS] | -0.83 ± 0.32 | -0.225 ± 0.21 | -0.424 ± 0.31
16 | SAGEKKIKIEIKEIKPHENGYLSIKAKAYLEDGKKVAEVYEPYPPNLSLEELIEKVIERLEKEVKEKGESAG [r5_697_TrMRF] | -0.207 ± 0.18 | 0.445 ± 0.039 | 0.22 ± 0.21
17 | SVEKAREALEEAGFEVTRIEVREDGTVRVTVRRDGKLVEIELTVEPPPPVEVVEEEPEVRVERRYSAEDLSA [r9_2_TrROS_Hall] | -0.34 ± 0.42 | 0.499 ± 0.15 | 0.212 ± 0.35
18 | SKLPPGQPYRRVEMTITFDFKSPKELRKKIRELFGKIEVDMKHNPEDNWYTIDIWFPSPAVMDELKELIFSA [r9_764_TrROS] | 3.29 ± 0.061 | 3.06 ± 0.17 | 3.07 ± 0.23
19 | SSPMTVEELLERHPNLLVVRLPDGTVYLFDPEKETLYTVTPGTGEVTVTPLSLEELLALLPAAGHEVLPLSA [r9_721_JUSTAS] | 2.14 ± 0.092 | 1.74 ± 0.1 | 1.99 ± 0.11
20 | SAGGSAEVRVVAEPLPDDYLLVLVEFDSPEVLPEALEAIPGVVEVRAYRFLEEGRPRYRVLALVPASAGGSA [r15_344_TrMRF] | 2.02 ± 0.059 | 1.4 ± 0.024 | 1.8 ± 0.06
21 | SAGGSAGGSAGMKELEITIIDKKTGKPLKVKVTLVEVDGKLYLVIEVYKNGKPLETYVLPSAGGSAGGSAGG [r11_631_TrROS_Hall] | 3.2 ± 0.072 | 2.29 ± 0.12 | 3 ± 0.18

Row | Sequence | folding stability dG unfold [1] [kcal/mol] | folding stability dG unfold [2] [kcal/mol] | folding stability dG unfold [3] [kcal/mol]
22 | SAGGSPWIFVIKIEWEPRDPDGKKKKYEYSIVITATPNQLDELLEQIKKAPPGYKIKEVKIEVFPFSAGGSA [r2_75_TrROS] | 4.21 ± 0.086 | 2.65 ± 0.18 | 3.82 ± 0.21
23 | SAGGSAEIEITVTVPPEMTEEEIKEQLEAELQRLTGEKVEIVDIRVEEVNGELTVTVKIKIEPAPPSAGGSA [r15_105_TrROS_Hall] | 2.71 ± 0.2 | 3.04 ± 0.28 | 2.85 ± 0.3
24 | SAGGSAGGSGVSSVLESLPPSYTVTVEKLPESGKLVVTVTSPSGAAPSLTLDEELADLLKELLSAGGSAGGS [r12_174_JUSTAS] | 0.626 ± 0.03 | 2.2 ± 0.13 | 1.47 ± 0.093
25 | SAGGMKVTVTEDGSSSKVTITIKDPKTGIEKTYTATATVLPDGTVVYTITYPDGSKKTIPSSELELSSAGGS [r16_154_JUSTAS] | 4.02 ± 0.051 | 2.11 ± 0.087 | 3.61 ± 0.11
26 | SAGAVRPDEPVTVTVTVEVDPETGFVRVTFDAAAPDGITVEALIPPDGPVLVRVRRPGSRETVEVVLPASAG [r5_55_TrMRF] | 3.31 ± 0.045 | 2.57 ± 0.13 | 3.06 ± 0.072
27 | GKYYLVNIVVVNEDNKSLVFPKVFPENDPEKVLEEIKKLLEELGFKAKKLITVFEKLPDGNVLVNAVVEVGS [r1_281_TrMRF] | 5.63 ± 0.25 | 3.79 ± 0.15 | 5.57 ± 0.3
28 | SAGGSAGGSAGGSAPPNLIIFIHVEIKIKEPKFDPGNGKPEYEIEITDIPIQIMPPDDLSAGGSAGGSAGGS [r4_417_TrROS] | 2.39 ± 0.088 | 2.15 ± 0.16 | 2.26 ± 0.11
29 | SAGGSAGGSAGMSVSLTSTTVSLPPELLSPEEAARTEDAVVTTTTSTLPAVVDPATGTVTSAGGSAGGSAGG [r17_310_JUSTAS] | 0.518 ± 0.043 | 1.92 ± 0.057 | 1.39 ± 0.092
30 | SAGGPMYIVIKVEVWNPDNGKKREINIVIPIPPGMTPEQMLEKAKELARTIAEENGYEVRIDEIHIFSAGGS [r8_312_TrROS] | 2.862 ± 0.02 | 3.13 ± 0.087 | 3.03 ± 0.098
31 | SAGGSAGGSMYVVRAVIRRPKAVPPPLAEEEIDIPVADREITAEEIARLFTPPGYELVRIEADSAGGSAGGS [r12_611_TrMRF] | -0.36 ± 0.24 | -0.177 ± 0.19 | -0.225 ± 0.14
32 | SAGGSAGGSAGMKKTVTTSTAPDGTLTTTTTVPTPDSTTTVVTTTTDPTTGTTTTTTTANSAGGSAGGSAGG [r11_107_JUSTAS] | -0.317 ± 0.095 | -2 ± 0.54 | -0.711 ± 0.34
33 | SAGGSVDVSYDPSTGVVTVTIPSPTGSIGEEEVERVARELKEKYPNVTVSFTPSPGPAVTVTITIPGGSAGG [r13_291_JUSTAS] | 2.24 ± 0.042 | 1.71 ± 0.07 | 2.08 ± 0.074
34 | SAGGSAGKKPVEFKVKIMIFNPENGDMYMIEMTITIDPDGQIKIKIKLPDPPRLPPGMVIFIMVYISAGGSA [r15_488_TrROS] | 5.24 ± 0.085 | 4.08 ± 0.16 | 5.01 ± 0.16
35 | SAGGMKIEFDEKTKRITITLPDGKKVEIELKDGRKVEITFERVDGKLKVVIKHKNEEEALELAKKLLSAGGS [r16_623_TrROS_Hall] | 1.34 ± 0.082 | 1.15 ± 0.086 | 1.55 ± 0.26
36 | SAGGSAGGSGVTIPIWYKMDPGQPVPTAEEIQNIINELGFPIKDIKVQYHPDNGYVRAEITVKSAGGSAGGS [r12_1052_TrROS] | 0.828 ± 0.088 | 1.25 ± 0.048 | 1.11 ± 0.17
37 | SAGGSAGGSAGYVVIPLDIDAEPGATVEITLPNGEKIEAIVEDHPDGLRSVRVGDGVILVPGSAGGSAGGSA [r18_372_TrMRF] | 0.827 ± 0.05 | 0.465 ± 0.032 | 0.742 ± 0.087
38 | SAGGSKKVDIKPGKVKKVEVKTLPNGKKLLVLYFPLEDGKEKVVVISSDFKTPEEALEAAYKQLGKSAGGSA [r2_347_TrMRF] | 1.21 ± 0.066 | 1.02 ± 0.049 | 1.23 ± 0.21
39 | SPKVTLTLEGKVITFPAPLAEKLLGELQRKGYKVKILSVEPDPETDEIYLVMEVEPLKPPPLPPPNPLLESA [r9_448_TrMRF] | 2.28 ± 0.062 | 1.16 ± 0.14 | 2.05 ± 0.35
40 | SAGGSAGGSPNDMKEVDFPIKFPKEKFKVKIWRHPDDPNRYYIRFPSNGAIFWFDPNGDIEPLSAGGSAGGS [r12_580_TrROS] | 1.75 ± 0.085 | 1.01 ± 0.056 | 1.49 ± 0.1
41 | SAGGSAGGSAGGLLEIELPSRRILVELKLELKDGKLVKLEIKVKYEGREPEPLTSPEYKSAGGSAGGSAGGS [r10_1043_TrMRF] | 1.94 ± 0.17 | 1.71 ± 0.14 | 1.76 ± 0.44
42 | SAGGSAGGSAGMVITKDPNGNYTVDLVLPDGTPLDSGTITLEEVEKILKERGIPLKEIFGSAGGSAGGSAGG [r11_521_JUSTAS] | 0.543 ± 0.048 | -0.271 ± 0.27 | 0.361 ± 0.12

Source: the supplement of paper PMC12764529
